Earlier results in publication PMC6442720.

Target: laminin 10 (Homo sapiens) (UniProt O15230)

**Q.** Which Kd does the source give for integrin α3β1 (from UniProt P26006) here?
**A.** 7.9 nM
